In patent publication US20240124590A1 (ULTRAHUMAN EIGHT, published 2024):

How the values were obtained:
[1] = molecular target: T1, human PD1 protein (construct not stated) (human, UniProt Q15116 25-170, limits assumed); assay: direct ELISA
T1 construct: Coated protein of the off-target ELISA; whole entry named

[2] = molecular target: T2, cyno PD1 protein (construct not stated) (cynomolgus monkey, UniProt Q15116 25-170 (human entry), limits assumed); assay: direct ELISA
T2 construct: may be two constructs; also called cyno PD1 in the Alphascreen screen
T2 chain: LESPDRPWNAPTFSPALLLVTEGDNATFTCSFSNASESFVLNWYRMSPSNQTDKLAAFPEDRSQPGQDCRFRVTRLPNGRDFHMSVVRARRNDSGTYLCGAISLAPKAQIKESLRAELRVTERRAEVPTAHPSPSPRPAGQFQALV

[3] = molecular target: T3, recombinant ectodomain of human VEGFR2 (human, UniProt P35968 20-764); assay: direct ELISA
T3 construct: whole entry named

[4] = molecular target: T4, recombinant ectodomain of rhesus VEGFR2 (rhesus); assay: direct ELISA
T4 construct: whole entry named
T4 chain: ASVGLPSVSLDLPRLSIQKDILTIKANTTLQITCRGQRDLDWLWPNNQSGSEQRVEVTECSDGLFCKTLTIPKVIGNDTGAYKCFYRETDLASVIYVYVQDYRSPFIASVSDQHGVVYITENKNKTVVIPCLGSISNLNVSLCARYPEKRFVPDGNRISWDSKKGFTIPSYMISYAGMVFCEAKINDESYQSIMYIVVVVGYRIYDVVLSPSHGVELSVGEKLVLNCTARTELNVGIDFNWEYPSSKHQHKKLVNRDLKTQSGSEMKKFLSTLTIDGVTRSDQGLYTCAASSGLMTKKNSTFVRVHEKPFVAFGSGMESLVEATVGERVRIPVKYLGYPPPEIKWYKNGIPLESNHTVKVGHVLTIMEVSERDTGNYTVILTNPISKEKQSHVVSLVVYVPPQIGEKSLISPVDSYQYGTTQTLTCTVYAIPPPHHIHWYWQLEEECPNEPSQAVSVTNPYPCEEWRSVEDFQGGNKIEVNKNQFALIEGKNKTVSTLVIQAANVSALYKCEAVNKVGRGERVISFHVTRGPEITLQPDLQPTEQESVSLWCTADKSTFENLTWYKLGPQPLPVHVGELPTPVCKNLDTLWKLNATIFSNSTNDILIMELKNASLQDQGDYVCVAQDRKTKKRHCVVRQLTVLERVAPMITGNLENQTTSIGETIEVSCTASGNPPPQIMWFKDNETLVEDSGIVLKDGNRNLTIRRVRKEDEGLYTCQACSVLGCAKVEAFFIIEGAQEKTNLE

[5] = molecular target: T5, human PD1 expressed on cells (human, UniProt Q15116 25-288); assay: cell microarray re-array, transfected HEK293
T5 construct: also called human PD1+ CHO cells; PD1-transfected HEK293 cells
T5 sequence (Q15116 25-288 limits assumed): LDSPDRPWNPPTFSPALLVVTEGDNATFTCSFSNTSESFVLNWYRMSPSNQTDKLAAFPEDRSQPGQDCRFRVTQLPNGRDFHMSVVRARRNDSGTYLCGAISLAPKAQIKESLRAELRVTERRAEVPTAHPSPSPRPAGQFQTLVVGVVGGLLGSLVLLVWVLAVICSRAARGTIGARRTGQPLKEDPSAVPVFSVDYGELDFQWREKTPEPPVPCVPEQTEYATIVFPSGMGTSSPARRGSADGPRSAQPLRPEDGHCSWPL
Procedure: (§1) Antibody binding was detected using AF647 fluorescent secondary anti-human IgG1 antibody. Primary hits (duplicate spots) were identified by analysing fluorescence (AF647 and ZsGreen1) on ImageQuant. Vectors encoding all hits were sequenced to confirm their correct identities. […] Slides were analysed as above. Flow cytometry confirmation screen: Expression vectors encoding ZsGreen1 only, or ZsGreen1 and PD1, FZDS, KDR or ULBP2, were transfected into human HEK293 cells. Each live transfectant was incubated with […] of each of the test antibodies and the Isotype control antibody. Cells were washed, and incubated with the same AF647 anti-human IgG Fc detection antibody as used in the cell microarray screens. Cells were again washed, and analysed by flow cytometry using an Accuri flow cytometer (BD). A 7AAD live/dead dye was used to exclude dead cells, and ZsGreen1-positive cells (i.e. transfected cells) were selected for analyses.

[6] = molecular target: T6, human FZD5 (frizzled class receptor 5) on transfected HEK293 cells (human, UniProt Q13467 27-585); assay: cell microarray re-array, transfected HEK293
T6 construct: also called FZDS; FZ5
T6 sequence (Q13467 27-585 limits assumed): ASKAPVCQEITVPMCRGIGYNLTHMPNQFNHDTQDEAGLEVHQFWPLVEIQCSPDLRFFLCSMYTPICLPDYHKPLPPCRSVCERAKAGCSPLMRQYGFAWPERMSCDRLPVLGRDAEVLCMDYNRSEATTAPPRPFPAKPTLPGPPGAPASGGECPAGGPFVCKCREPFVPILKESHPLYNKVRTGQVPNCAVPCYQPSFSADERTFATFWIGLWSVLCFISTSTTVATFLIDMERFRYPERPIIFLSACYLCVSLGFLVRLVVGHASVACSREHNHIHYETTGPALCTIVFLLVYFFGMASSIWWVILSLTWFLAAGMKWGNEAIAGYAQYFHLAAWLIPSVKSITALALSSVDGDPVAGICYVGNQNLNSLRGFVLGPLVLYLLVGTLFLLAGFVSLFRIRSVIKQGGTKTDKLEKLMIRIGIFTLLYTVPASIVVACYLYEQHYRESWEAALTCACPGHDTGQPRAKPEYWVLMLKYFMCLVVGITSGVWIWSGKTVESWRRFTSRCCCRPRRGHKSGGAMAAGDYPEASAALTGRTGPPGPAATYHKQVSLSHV
Procedure: as §1

[7] = molecular target: T7, human KDR (VEGFR2) on cells (human, UniProt P35968 20-1356); assay: cell microarray re-array, transfected HEK293
T7 construct: Transfected HEK293 cells (arrays, flow cytometry) and human VEGFR2 reporter cells
Procedure: as §1

[8] = molecular target: T8, human ULBP2 (UL16 binding protein 2) on transfected HEK293 cells (human, UniProt Q9BZM5 26-217); assay: cell microarray re-array, transfected HEK293
T8 sequence: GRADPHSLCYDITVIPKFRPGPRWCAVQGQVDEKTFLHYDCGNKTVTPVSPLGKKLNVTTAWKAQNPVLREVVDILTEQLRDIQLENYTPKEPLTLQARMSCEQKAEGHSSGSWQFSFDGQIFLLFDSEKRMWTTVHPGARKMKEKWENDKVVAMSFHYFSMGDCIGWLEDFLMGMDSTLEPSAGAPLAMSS
Procedure: as §1

[9] = molecular target: T9, human monomeric VEGFR2-his protein (human, UniProt P35968 20-764); assay: SPR (Biacore), IgG captured, VEGFR2-his analyte
T9 construct: Soluble analyte; whole entry named; also called human VEGFR2-his; not shown: his tag
Procedure: (§2) Affinity (KD) of purified IgGs was determined via SPR with antigen in-solution on a Biacore 3000 (GE). A mouse anti-human antibody (CH1 specific) was immobilized on a CM5 Sensor Chip to a level of 2000 RU in acetate buffer at pH 4.5 using amine coupling following the Wizard instructions for two channels. One channel was used for background signal correction. The standard running buffer HBS-EP pH 7.4 was used. Regeneration was performed with a single injection of 10 μl of 10 mM Glycine at pH 1.5 at 20 μl/minute. IgG samples were injected for 2 minutes at 50 nM at 30 μl/min followed by and off-rate of 60 seconds. […] The obtained sensorgrams were analysed using the Biacore 3000 evaluation (BIAevaluation) software. The KD was calculated by simultaneous fitting of the association and dissociation phases to a 1:1 Langmuir binding model.

[10] = molecular target: T10, rhesus monomeric VEGFR2-his protein (rhesus); assay: SPR (Biacore), IgG captured, VEGFR2-his analyte
T10 construct: Soluble analyte; whole entry named; also called rhesus VEGFR2-his; not shown: his tag
T10 chain: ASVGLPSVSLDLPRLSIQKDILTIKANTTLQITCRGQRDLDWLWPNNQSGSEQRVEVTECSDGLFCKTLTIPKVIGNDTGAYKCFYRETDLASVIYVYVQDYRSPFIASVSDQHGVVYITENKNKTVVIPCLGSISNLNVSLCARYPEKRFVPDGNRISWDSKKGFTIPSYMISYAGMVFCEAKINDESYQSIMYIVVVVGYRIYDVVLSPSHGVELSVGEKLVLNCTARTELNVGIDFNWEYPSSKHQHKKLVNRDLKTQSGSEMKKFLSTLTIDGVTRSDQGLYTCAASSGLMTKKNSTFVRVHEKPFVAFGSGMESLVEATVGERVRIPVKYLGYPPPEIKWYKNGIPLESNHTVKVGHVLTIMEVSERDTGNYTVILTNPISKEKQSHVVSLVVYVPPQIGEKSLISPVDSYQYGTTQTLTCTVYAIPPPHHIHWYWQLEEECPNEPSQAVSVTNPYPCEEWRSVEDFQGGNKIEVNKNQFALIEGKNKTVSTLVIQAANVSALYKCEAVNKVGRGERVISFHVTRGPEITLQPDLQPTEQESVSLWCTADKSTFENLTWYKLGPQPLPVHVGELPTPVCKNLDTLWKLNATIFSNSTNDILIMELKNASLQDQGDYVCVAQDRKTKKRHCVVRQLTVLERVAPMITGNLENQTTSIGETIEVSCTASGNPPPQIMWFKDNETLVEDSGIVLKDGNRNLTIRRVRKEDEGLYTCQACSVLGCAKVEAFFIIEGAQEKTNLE
Procedure: as §2

T1 sequence (Q15116 25-170 limits assumed): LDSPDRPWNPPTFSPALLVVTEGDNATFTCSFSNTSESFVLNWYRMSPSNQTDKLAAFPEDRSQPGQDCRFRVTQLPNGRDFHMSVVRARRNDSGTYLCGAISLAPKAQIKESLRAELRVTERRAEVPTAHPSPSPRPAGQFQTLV

binding result [1]: binds
binding result [2]: binds
binding result [3]: binds
binding result [4]: binds
binding result [5]: binds
binding result [6]: binds
binding result [7]: binds
binding result [8]: binds
binding result [9]: binds
binding result [10]: binds
B1: mVH/mVL Mab005-IgG1 (antibody, V domains shown)
VH: EVMLVESGGGLVKPGGSLKLSCAASGFTFSSYMMSWVRQTPEKRLEWVATISGGGANTYYPDSVKGRFTISRDNAKNTLYLQMSSLRSEDTALYYCARQLYYFDYWGQGTTLTVSS
VL: DIQMTQSPASQSASLGEGVTITCLASQTIGTWLTWYQQKPGKSPQLLIYTATSLADGVPSRFSGSGSGTKFSFKISSLQAEDFVTYYCQQVYSIPWTFGGGTKLEIK
notes: Murine PD1-mVH/PD1-mVL on human IgG1null + Ckappa; also called original murine hybridoma v-domains
